Experimental data from publication doi:10.1101/559534v1 (biorxiv, 2019).

B1: ATRR (ATR1R2) (Aspergillus nidulans FGSC A4; Y812F) (protein)
chain: MAIIDTTKDLSALFTQQVRASPNALALEDDKTSYTYAELDKEVEELSRRLRSYGVSRDSLVGVLLPRSAHFVIACLAALRAGGAFLVLELAYPPDLLADVLEDATPAVVVTHRSETGKIKGSVPVISLDEPPVDANGHTVEPGPLPVDDDLDRLAFVSYSSGTTGKPKGIANPHRAPVLSYNLRFGVQDLQPGDRVACNVFFIWEILRPLIRGATVVAVPDDHSYDPAALVDLLASRHITETLMTPTLLATILSRHSDIGARLPELRTLWLNGEVVTTDLARRAIRALPNTRLLNCYSACETHEIACGDIKEIVSDESQYCPVGPLLDPKHAYIVNEQGEKVEEGVSGELCVGGPMLARGYINRPETTAKAFIPDPFSNSPGAVMYRTGDRARMLPSGLLEITGRVGAMIKLRGYSVVPGKVENDIVKHLAVRQCAVVAHGEGLERQLVAYIVADQEHSEERPTVEINSSGHSPGARRALTKFLAHYMIPALWVQVDELPTHEVSGKIDLKRLPPPPTEVLANGNGKKEDPIGIEDIAAIWAVALKVPKATLKPEDNFFDLGGHSLSIADLSSRLSRKFGFRIPIVRLAENSTLSGHLDTVRAIRDGHTAAVQADLPAVLRTDATLDEEIRSDAKICSLTDAKTVLLTGVTGFLGAFLLKDLVDSTSAHIICLVRFNEPEDDDQPGGVARIRRNLLDLGLWNDSIMERVEILPGNLSRSRFGLTPDAFQELAQRVDVIVHAAASVNLVYPYAALRAANVGGTREILRLASQGGATVQYVSTNGVLPPSGEKGWPEDTMLDMKDVPTKLLDGFGQTKWVAEQLVLEAGRRGLPVRVHRIGTVSGHSQSGAANAWDLLTALIVESIKLGKYPDVEGWRAEMTPVDFVSKAIIHLANQTAVEQTVFHIGDPDPVNTRSVFEDLKTLGYPTEPLSWDDWVALWTSQRGHVKGGDGGFTVDILRSGMPSIEFLRGIVVLDNSATRPIRREVERPKVDRFLLETYTRHWFARGWLKRPPIRQRQLSPIPKGPLSGKVAVVTGASSGIGAAVATALAREGAHVALGARRLDALESLKEKLSASGVKVVTCKTDVTDRKQVEGLVKAATEELGPVDILVACAGVMYFTMMANTQMDEWERTVDVNCKGILNSLASTVPGMLARGKGHVVAISSDAGRKVFPGLGVYSASKFFVEATLQALRLETAGQGLRVTAVQPGNTATDLLGMSTDAEAIKKYGEPSGAQILDPEDVANSIIYALRQPEHVAMNEILIEPRDEPI
B2: ATRR (ATR1R2) (Aspergillus nidulans FGSC A4; Y1178F) (protein)
chain: MAIIDTTKDLSALFTQQVRASPNALALEDDKTSYTYAELDKEVEELSRRLRSYGVSRDSLVGVLLPRSAHFVIACLAALRAGGAFLVLELAYPPDLLADVLEDATPAVVVTHRSETGKIKGSVPVISLDEPPVDANGHTVEPGPLPVDDDLDRLAFVSYSSGTTGKPKGIANPHRAPVLSYNLRFGVQDLQPGDRVACNVFFIWEILRPLIRGATVVAVPDDHSYDPAALVDLLASRHITETLMTPTLLATILSRHSDIGARLPELRTLWLNGEVVTTDLARRAIRALPNTRLLNCYSACETHEIACGDIKEIVSDESQYCPVGPLLDPKHAYIVNEQGEKVEEGVSGELCVGGPMLARGYINRPETTAKAFIPDPFSNSPGAVMYRTGDRARMLPSGLLEITGRVGAMIKLRGYSVVPGKVENDIVKHLAVRQCAVVAHGEGLERQLVAYIVADQEHSEERPTVEINSSGHSPGARRALTKFLAHYMIPALWVQVDELPTHEVSGKIDLKRLPPPPTEVLANGNGKKEDPIGIEDIAAIWAVALKVPKATLKPEDNFFDLGGHSLSIADLSSRLSRKFGFRIPIVRLAENSTLSGHLDTVRAIRDGHTAAVQADLPAVLRTDATLDEEIRSDAKICSLTDAKTVLLTGVTGFLGAFLLKDLVDSTSAHIICLVRFNEPEDDDQPGGVARIRRNLLDLGLWNDSIMERVEILPGNLSRSRFGLTPDAFQELAQRVDVIVHAAASVNLVYPYAALRAANVGGTREILRLASQGGATVQYVSTNGVLPPSGEKGWPEDTMLDMKDVPTKLLDGYGQTKWVAEQLVLEAGRRGLPVRVHRIGTVSGHSQSGAANAWDLLTALIVESIKLGKYPDVEGWRAEMTPVDFVSKAIIHLANQTAVEQTVFHIGDPDPVNTRSVFEDLKTLGYPTEPLSWDDWVALWTSQRGHVKGGDGGFTVDILRSGMPSIEFLRGIVVLDNSATRPIRREVERPKVDRFLLETYTRHWFARGWLKRPPIRQRQLSPIPKGPLSGKVAVVTGASSGIGAAVATALAREGAHVALGARRLDALESLKEKLSASGVKVVTCKTDVTDRKQVEGLVKAATEELGPVDILVACAGVMYFTMMANTQMDEWERTVDVNCKGILNSLASTVPGMLARGKGHVVAISSDAGRKVFPGLGVFSASKFFVEATLQALRLETAGQGLRVTAVQPGNTATDLLGMSTDAEAIKKYGEPSGAQILDPEDVANSIIYALRQPEHVAMNEILIEPRDEPI
B3: ATRR (ATR1R2) (Aspergillus nidulans FGSC A4; G1036A/Y1178F) (protein)
chain: MAIIDTTKDLSALFTQQVRASPNALALEDDKTSYTYAELDKEVEELSRRLRSYGVSRDSLVGVLLPRSAHFVIACLAALRAGGAFLVLELAYPPDLLADVLEDATPAVVVTHRSETGKIKGSVPVISLDEPPVDANGHTVEPGPLPVDDDLDRLAFVSYSSGTTGKPKGIANPHRAPVLSYNLRFGVQDLQPGDRVACNVFFIWEILRPLIRGATVVAVPDDHSYDPAALVDLLASRHITETLMTPTLLATILSRHSDIGARLPELRTLWLNGEVVTTDLARRAIRALPNTRLLNCYSACETHEIACGDIKEIVSDESQYCPVGPLLDPKHAYIVNEQGEKVEEGVSGELCVGGPMLARGYINRPETTAKAFIPDPFSNSPGAVMYRTGDRARMLPSGLLEITGRVGAMIKLRGYSVVPGKVENDIVKHLAVRQCAVVAHGEGLERQLVAYIVADQEHSEERPTVEINSSGHSPGARRALTKFLAHYMIPALWVQVDELPTHEVSGKIDLKRLPPPPTEVLANGNGKKEDPIGIEDIAAIWAVALKVPKATLKPEDNFFDLGGHSLSIADLSSRLSRKFGFRIPIVRLAENSTLSGHLDTVRAIRDGHTAAVQADLPAVLRTDATLDEEIRSDAKICSLTDAKTVLLTGVTGFLGAFLLKDLVDSTSAHIICLVRFNEPEDDDQPGGVARIRRNLLDLGLWNDSIMERVEILPGNLSRSRFGLTPDAFQELAQRVDVIVHAAASVNLVYPYAALRAANVGGTREILRLASQGGATVQYVSTNGVLPPSGEKGWPEDTMLDMKDVPTKLLDGYGQTKWVAEQLVLEAGRRGLPVRVHRIGTVSGHSQSGAANAWDLLTALIVESIKLGKYPDVEGWRAEMTPVDFVSKAIIHLANQTAVEQTVFHIGDPDPVNTRSVFEDLKTLGYPTEPLSWDDWVALWTSQRGHVKGGDGGFTVDILRSGMPSIEFLRGIVVLDNSATRPIRREVERPKVDRFLLETYTRHWFARGWLKRPPIRQRQLSPIPKGPLSGKVAVVTAASSGIGAAVATALAREGAHVALGARRLDALESLKEKLSASGVKVVTCKTDVTDRKQVEGLVKAATEELGPVDILVACAGVMYFTMMANTQMDEWERTVDVNCKGILNSLASTVPGMLARGKGHVVAISSDAGRKVFPGLGVFSASKFFVEATLQALRLETAGQGLRVTAVQPGNTATDLLGMSTDAEAIKKYGEPSGAQILDPEDVANSIIYALRQPEHVAMNEILIEPRDEPI
B4: ATRR (ATR1R2) (Aspergillus nidulans FGSC A4) (protein)
chain: MAIIDTTKDLSALFTQQVRASPNALALEDDKTSYTYAELDKEVEELSRRLRSYGVSRDSLVGVLLPRSAHFVIACLAALRAGGAFLVLELAYPPDLLADVLEDATPAVVVTHRSETGKIKGSVPVISLDEPPVDANGHTVEPGPLPVDDDLDRLAFVSYSSGTTGKPKGIANPHRAPVLSYNLRFGVQDLQPGDRVACNVFFIWEILRPLIRGATVVAVPDDHSYDPAALVDLLASRHITETLMTPTLLATILSRHSDIGARLPELRTLWLNGEVVTTDLARRAIRALPNTRLLNCYSACETHEIACGDIKEIVSDESQYCPVGPLLDPKHAYIVNEQGEKVEEGVSGELCVGGPMLARGYINRPETTAKAFIPDPFSNSPGAVMYRTGDRARMLPSGLLEITGRVGAMIKLRGYSVVPGKVENDIVKHLAVRQCAVVAHGEGLERQLVAYIVADQEHSEERPTVEINSSGHSPGARRALTKFLAHYMIPALWVQVDELPTHEVSGKIDLKRLPPPPTEVLANGNGKKEDPIGIEDIAAIWAVALKVPKATLKPEDNFFDLGGHSLSIADLSSRLSRKFGFRIPIVRLAENSTLSGHLDTVRAIRDGHTAAVQADLPAVLRTDATLDEEIRSDAKICSLTDAKTVLLTGVTGFLGAFLLKDLVDSTSAHIICLVRFNEPEDDDQPGGVARIRRNLLDLGLWNDSIMERVEILPGNLSRSRFGLTPDAFQELAQRVDVIVHAAASVNLVYPYAALRAANVGGTREILRLASQGGATVQYVSTNGVLPPSGEKGWPEDTMLDMKDVPTKLLDGYGQTKWVAEQLVLEAGRRGLPVRVHRIGTVSGHSQSGAANAWDLLTALIVESIKLGKYPDVEGWRAEMTPVDFVSKAIIHLANQTAVEQTVFHIGDPDPVNTRSVFEDLKTLGYPTEPLSWDDWVALWTSQRGHVKGGDGGFTVDILRSGMPSIEFLRGIVVLDNSATRPIRREVERPKVDRFLLETYTRHWFARGWLKRPPIRQRQLSPIPKGPLSGKVAVVTGASSGIGAAVATALAREGAHVALGARRLDALESLKEKLSASGVKVVTCKTDVTDRKQVEGLVKAATEELGPVDILVACAGVMYFTMMANTQMDEWERTVDVNCKGILNSLASTVPGMLARGKGHVVAISSDAGRKVFPGLGVYSASKFFVEATLQALRLETAGQGLRVTAVQPGNTATDLLGMSTDAEAIKKYGEPSGAQILDPEDVANSIIYALRQPEHVAMNEILIEPRDEPI

Key:
purified protein [1] = substrate: C[N+](C)(C)CC=O; experiment: purified protein; conditions: NADPH as co-substrate
[2] = substrate: C[N+](C)(C)CC(=O)[O-]; experiment: carboxylic acid reductase steady-state kinetics, NADPH oxidation; type: biochemical, Aspergillus nidulans; conditions: ATP and NADPH as co-substrates; R2 inactivated
purified protein [3] = substrate: C[N+](C)(C)CC(=O)[O-]; experiment: purified protein; type: biochemical, Aspergillus nidulans; conditions: holo-enzyme; ATP and NADPH as co-substrates
purified protein [4] = substrate: CN(C)CC(=O)O; experiment: purified protein; conditions: ATP and NADPH as co-substrates; fit with substrate inhibition

Protein	Km [2] [µM]	kcat [2] [s⁻¹]	Km (purified protein [1]; R2 inactivated) [µM]	kcat (purified protein [1]; R2 inactivated) [s⁻¹]	other results
B1					Km (purified protein [1]; R1 inactivated): 240 ± 30 µM; kcat (purified protein [1]; R1 inactivated): 7.0 ± 0.2 s⁻¹
B2	2200 ± 200	0.72 ± 0.02	1500 ± 600	0.30 ± 0.04	
B3	2200 ± 300	0.66 ± 0.02	2600 ± 500	0.018 ± 0.001	
B4					Km (purified protein [3]): 2100 ± 200 µM; kcat (purified protein [3]): 0.94 ± 0.03 s⁻¹; Km (purified protein [4]): 5800 ± 800 µM; kcat (purified protein [4]): 0.023 ± 0.002 s⁻¹; Km (purified protein [1]; R2 site): 240 ± 30 µM; kcat (purified protein [1]; R2 site): 7.1 ± 0.3 s⁻¹
